Measured values from patent publication US20210292396A1.

Key:
Assay in all cases: cell-based or functional assay
[1] = target: HIV Env of isolate 247-23 (HIV)
[2] = target: Env of HIV isolate 16936-2.21 (clade C) (HIV)
[3] = target: Env of HIV isolate UG024.2 (clade D) (HIV)
[4] = target: Env of HIV isolate DJ263.8 (clade AG) (HIV)
[5] = target: Env of HIV isolate 0013095-2.11 (clade C) (HIV)
[6] = target: Env of HIV isolate 246-F3.C10.2 (clade AC) (HIV)
[7] = target: HIV Env of isolate CH117.4 (HIV)
[8] = target: Env of HIV isolate YU2.DG (clade B) (HIV)
[9] = target: HIV Env of isolate TZA125.17 (HIV)
[10] = target: Env of HIV isolate 3168.v4.c10 (clade C) (HIV)
[11] = target: HIV Env of isolate DU172.17 (HIV)
[12] = target: Env of HIV isolate QH0692.42 (clade B) (HIV)
[13] = target: Env of HIV isolate AC10.29 (clade B) (HIV)
[14] = target: Env of HIV isolate CNE57 (clade B) (HIV)
[15] = target: Env of HIV isolate ZM249.1 (clade C) (HIV)
[16] = target: Env of HIV isolate 3016.v5.c45 (clade D) (HIV)
[17] = target: Env of HIV isolate 398-F1.F6.20 (clade A) (HIV)
[18] = target: Env of HIV isolate CNE30 (clade C in Table 7) (HIV)
[19] = target: HIV Env of isolate CNE20 (HIV)
[20] = target: Env of HIV isolate R1166.C1 (clade AE) (HIV)
[21] = target: HIV Env of isolate 426c (HIV)
[22] = target: Env of HIV isolate 271-11 (clade AG) (HIV)
[23] = target: HIV Env of isolate P1981.C5.3 (HIV)
[24] = target: Env of HIV isolate R2184.c4 (clade AE) (HIV)
[25] = target: Env of HIV isolate BG1168.01 (clade B) (HIV)
[26] = target: HIV Env of isolate 6838.v1.c35 (HIV)
[27] = target: HIV Env of isolate 25925-2.22 (HIV)
[28] = target: HIV Env of isolate 3873.v1.c24 (HIV)
[29] = target: Env of HIV isolate BL01.DG (clade B) (HIV)
[30] = target: Env of HIV isolate X1632.S2.B10 (clade G) (HIV)
[31] = target: Env of HIV isolate Q842.d12 (clade A) (HIV)
[32] = target: Env of HIV isolate CNE4 (clade B) (HIV)
[33] = target: Env of HIV isolate RW020.2 (clade A) (HIV)
[34] = target: Env of HIV isolate BJOX002000.03.2 (clade BC) (HIV)
[35] = target: Env of HIV isolate 16055-2.3 (clade C) (HIV)
[36] = target: Env of HIV isolate 96ZM651.02 (clade C) (HIV)
[37] = target: Env of HIV isolate TH966.8 (clade AE) (HIV)
[38] = target: Env of HIV isolate CNE3 (clade AE) (HIV)
[39] = target: HIV Env of isolate CAP244.D3 (HIV)
[40] = target: Env of HIV isolate 57128.vrc15 (clade D) (HIV)
[41] = target: Env of HIV isolate CAP244.D3 (clade C) (HIV)
[42] = target: Env of HIV isolate TV1.29 (clade C) (HIV)
[43] = target: HIV Env of isolate 16936-2.21 (HIV)
[44] = target: HIV Env of isolate CNE21 (HIV)
[45] = target: Env of HIV isolate T250-4 (clade AG) (HIV)
[46] = target: Env of HIV isolate CNE53 (clade C in Table 7) (HIV)
[47] = target: HIV Env of isolate Ce1176.A3 (HIV)
[48] = target: Env of HIV isolate REJO.67 (clade B) (HIV)
[49] = target: Env of HIV isolate 235-47 (clade AG) (HIV)
[50] = target: Env of HIV isolate X1254.c3 (clade G) (HIV)

B1: ePGT121.15 (ePGT121.15.H6 VH and ePGT121.15.L1 VL) (antibody, V domains shown)
VH: QMQLQESGPGLVKPGETLSLTCSVSGASISSSYWSWLRETPGKGLEWIGYTHHSGDTNYAPSLKSRVHLGLHPSKNQVSLSLTSVTAADTAVYYCARTLHGRRIYGVVAFNEFFTYFYWEVWGKGTQVTVSS
VL: SDISVAPGETVRISCGGESIGSRAVQWYQHRAGQAPKLIIYNNQDRPPGIPERFSGSPDIDFGTTATLTITNVEAGDEATYYCHIWDSRRPTNWVFGGGTTLTVL
- IC80, pseudovirus neutralization [1]: > 50000 ng/mL
- IC50, pseudovirus neutralization [2]: 3 ng/mL
- IC50, pseudovirus neutralization [3]: 516 ng/mL
- IC50, pseudovirus neutralization [4]: 13 ng/mL
- IC50, pseudovirus neutralization [5]: 3010 ng/mL
- IC50, pseudovirus neutralization [6]: 11600 ng/mL
- IC80, pseudovirus neutralization [7]: > 50000 ng/mL
- IC50, pseudovirus neutralization [8]: 5 ng/mL
- IC80, pseudovirus neutralization [9]: 403 ng/mL
- IC50, pseudovirus neutralization [10]: 26 ng/mL
- IC80, pseudovirus neutralization [11]: 7 ng/mL
- IC50, pseudovirus neutralization [12]: 15 ng/mL
- IC50, pseudovirus neutralization [13]: 2 ng/mL
- IC50, pseudovirus neutralization [14]: 4 ng/mL
- IC50, pseudovirus neutralization [15]: 249 ng/mL
- IC50, pseudovirus neutralization [16]: > 50000 ng/mL
- IC50, pseudovirus neutralization [17]: 4 ng/mL
- IC50, pseudovirus neutralization [18]: 8 ng/mL
- IC80, pseudovirus neutralization [19]: 5 ng/mL
- IC50, pseudovirus neutralization [20]: > 50000 ng/mL
- IC80, pseudovirus neutralization [21]: 1380 ng/mL
- IC50, pseudovirus neutralization [22]: > 50000 ng/mL
- IC80, pseudovirus neutralization [23]: 5 ng/mL
- IC50, pseudovirus neutralization [24]: > 50000 ng/mL
- IC50, pseudovirus neutralization [25]: > 50000 ng/mL
- IC80, pseudovirus neutralization [26]: 1340 ng/mL
- IC80, pseudovirus neutralization [27]: 13 ng/mL
- IC80, pseudovirus neutralization [28]: 11 ng/mL
- IC50, pseudovirus neutralization [29]: 13100 ng/mL
- IC50, pseudovirus neutralization [30]: > 50000 ng/mL
- IC50, pseudovirus neutralization [31]: 3 ng/mL
- IC50, pseudovirus neutralization [32]: 4 ng/mL
- IC50, pseudovirus neutralization [33]: 3 ng/mL
- IC50, pseudovirus neutralization [34]: 3 ng/mL
- IC50, pseudovirus neutralization [35]: 29 ng/mL
- IC50, pseudovirus neutralization [36]: 1 ng/mL
- IC50, pseudovirus neutralization [37]: > 50000 ng/mL
- IC50, pseudovirus neutralization [38]: > 50000 ng/mL
- IC80, pseudovirus neutralization [39]: > 50000 ng/mL
- IC50, pseudovirus neutralization [40]: 7 ng/mL
- IC50, pseudovirus neutralization [41]: > 50000 ng/mL
- IC50, pseudovirus neutralization [42]: 4 ng/mL
- IC80, pseudovirus neutralization [43]: 7 ng/mL
- IC80, pseudovirus neutralization [44]: 4 ng/mL
- IC50, pseudovirus neutralization [45]: 2 ng/mL
- IC50, pseudovirus neutralization [46]: 7 ng/mL
- IC80, pseudovirus neutralization [47]: 10 ng/mL
- IC50, pseudovirus neutralization [48]: 1460 ng/mL
- IC50, pseudovirus neutralization [49]: 9 ng/mL
- IC50, pseudovirus neutralization [50]: 4 ng/mL
